Conditions in all cases: remark: other sources report otherwise
The target of assay [1] is SARS-CoV-2 delta plus variant RBD (SARS-CoV-2). The assay can be described thus: ELISA. Also noted: unit not given beside the values.
Assay [2] has as its target T1, SARS-CoV-2 delta variant B.1.617.2/3 RBD domain (SARS-CoV-2). The assay can be described thus: ELISA. More on the design: unit not given beside the values.
Assay [3] addresses T2, SARS-CoV-2 kappa variant B.1.617.1/3 RBD domain (SARS-CoV-2). The experiment in a line: ELISA. Also noted: unit not given beside the values.
The target of assay [4] is SARS-CoV-2 delta plus variant RBD (SARS-CoV-2). The assay can be described thus: RBD/ACE2 blocking ELISA.
Assay [5] concerns the target T1, SARS-CoV-2 delta variant B.1.617.2/3 …. The experiment in a line: RBD/ACE2 blocking ELISA.
The target in assay [6] is SARS-CoV-2 delta plus variant RBD (SARS-CoV-2). The assay can be described thus: ELISA.
Assay [7] addresses T2, SARS-CoV-2 kappa variant B.1.617.1/3 …. The experiment in a line: ELISA.
Assay [8] has as its target T3, SARS-CoV-2 omicron variant B.1.1.529 RBD domain (SARS-CoV-2). The experiment in a line: ELISA; unit from paragraph 452, none printed in the heatmap.
In assay [9] the target is T1, SARS-CoV-2 delta variant B.1.617.2/3 …. The assay can be described thus: ELISA.
In assay [10] the target is T3, SARS-CoV-2 omicron variant B.1.1.529 …. The assay can be described thus: ELISA. More on the design: unit not given beside the values.
Assay [11] addresses T4, SARS-CoV-2 omicron variant B.1.1.529 Spike ectodomain (tri-S, HexaPro) (SARS-CoV-2), P0DTC2. The experiment in a line: ELISA. More on the design: unit not given beside the values.
For assay [12], the target named is SARS-CoV-2 delta plus variant RBD (SARS-CoV-2). The assay can be described thus: ELISA. More on the design: unit not given beside the values. This is another data set of the same source.
For assay [13], the target named is T1, SARS-CoV-2 delta variant B.1.617.2/3 …. The assay can be described thus: ELISA. More on the design: unit not given beside the values. This is another data set of the same source.
In assay [14] the target is T2, SARS-CoV-2 kappa variant B.1.617.1/3 …. The experiment in a line: ELISA. Also noted: unit not given beside the values. The source holds these as a separate data set.
For assay [15] the target is unchanged. The experiment in a line: RBD/ACE2 blocking ELISA.
Assay [16] addresses SARS-CoV-2 delta plus variant RBD (SARS-CoV-2). The experiment in a line: RBD-ACE2 competition ELISA. More on the design: unit not given beside the values.
Assay [17] deals with T1, SARS-CoV-2 delta variant B.1.617.2/3 …. The experiment in a line: RBD-ACE2 competition ELISA. More on the design: unit not given beside the values.
The target in assay [18] is T2, SARS-CoV-2 kappa variant B.1.617.1/3 …. The assay can be described thus: RBD-ACE2 competition ELISA. More on the design: unit not given beside the values.
For assay [19], the target named is T4, SARS-CoV-2 omicron variant B.1.1.529 …. The experiment in a line: tri-S/ACE2 blocking ELISA [B].
The target of assay [20] is SARS-CoV-2 Omicron subvariant BA.2 RBD (SARS-CoV-2). The assay can be described thus: competition ELISA, biotinylated RBD to immobilized ACE2 ectodomain.
For assay [21], the target named is SARS-CoV-2 delta plus variant RBD (SARS-CoV-2). The assay is described as above.
The target of assay [22] is T1, SARS-CoV-2 delta variant B.1.617.2/3 …. The description is as above.
The target of assay [23] is T2, SARS-CoV-2 kappa variant B.1.617.1/3 …. The description is as above.
Assay [24] has as its target T3, SARS-CoV-2 omicron variant B.1.1.529 …. The description is as above.
The target in assay [25] is T4, SARS-CoV-2 omicron variant B.1.1.529 …. The assay can be described thus: competition ELISA, biotinylated tri-S to immobilized ACE2 ectodomain.

From US20240336672A1 come the findings set out here.

B1: COV2-2130 (antibody, V domains shown)
VH: EVQLVESGGGLVKPGGSLRLSCAASGFTFRDVWMSWVRQAPGKGLEWVGRIKSKIDGGTTDYAAPVKGRFTISRDDSKNTLYLQMNSLKTEDTAVYYCTTAGSYYYDTVGPGLPEGKFDYWGQGTLVTVSS
VL: not shown
Take B1: the results for the AUC in assay [1], in assay [2] and in assay [3] were 3, 3 and 4, respectively. Moreover, the % binding inhibition in [4] was found to be 88%; in assay [5], 77%.

B2: Cilgavimab (antibody, V domains shown)
VH: EVQLVESGGGLVKPGGSLRLSCAASGFTFRDVWMSWVRQAPGKGLEWVGRIKSKIDGGTTDYAAPVKGRFTISRDDSKNTLYLQMNSLKTEDTAVYYCTTAGSYYYDTVGPGLPEGKFDYWGQGTLVTVSS
VL: not shown
Consider B2, for which the OD405nm in [6] was 3.5; in assay [7], 3.7. In [8], this molecule showed an EC50 of 0.027 µg/mL.

B3: Cv2.3194 (recombinant human IgG1) (antibody)
heavy: EVQLVESGGGLIQPGGSLRLSCAASGITVTSNYMSWVRQAPGKGLEWVSVIYPGGSTFYADSVKGRFTISRDNSKNTLYLQMNSLRAEDTAVYYCARDLVVYGMDVWGQGTTVTVSSASTKGPSVFPLAPSSKSTSGGTAALGCLVKDYFPEPVTVSWNSGALTSGVHTFPAVLQSSGLYSLSSVVTVPSSSLGTQTYICNVNHKPSNTKVDKKVEPKSCDKTHTCPPCPAPELLGGPSVFLFPPKPKDTLMISRTPEVTCVVVDVSHEDPEVKFNWYVDGVEVHNAKTKPREEQYNSTYRVVSVLTVLHQDWLNGKEYKCKVSNKALPAPIEKTISKAKQPREPQVYTLPPSRDELTKNQVSLTCLVKGFYPSDIAVEWESNGQPENNYKTTPPVLDSDGSFFLYSKLTVDKSRWQQGNVFSCSVMHEALHNHYTQKSLSLSPGK
light: EIVLTQSPGTLSLSPGERATLSCRASQSVSSSYLAWYQQKPGQAPRLLIYGASSRATGIPGRFSGSGSGTDFTLTISRLEPEDFAIYYCQQGVTFGGGTKVEIKRTVAAPSVFIFPPSDEQLKSGTASVVCLLNNFYPREAKVQWKVDNALQSGNSQESVTEQDSKDSTYSLSSTLTLSKADYEKHKVYACEVTHQGLSSPVTKSFNRGEC
Consider B3, for which the OD405nm is 3.5 in assay [6], 3.4 in [9] and 3.6 in assay [7]. For the same molecule, the AUC is 10 in assay [10]; 12 in [11]; 3 in assay [1]; 3 in assay [2]; 4 in assay [3]. In addition, the AUC (RBD bind.) in [12], in [13] and in assay [14] was 13 each time. The % binding inhibition in assay [4] is 94%; in assay [5], 94%; in assay [15], 92%. For the same molecule, the values for the AUC (RBD block.) in [16], in assay [17] and in assay [18] were 141, 102 and 128, respectively. Besides, the AUC of blocking in [19] is 76. Also, the IC50 was 2.71 µg/mL in [20]; 0.28 µg/mL in assay [21]; 0.827 µg/mL in [22]; 0.469 µg/mL in assay [23]; 6.53 µg/mL in [24]; 0.876 µg/mL in assay [25]. Moreover, the IC90 worked out at 29.1 µg/mL in assay [20]; 0.967 µg/mL in [21]; 1.31 µg/mL in [22]; 1.1 µg/mL in [23]; 37.6 µg/mL in assay [24]; 1.2 µg/mL in assay [25].

B4: Cv2.3235 (recombinant human IgG1) (antibody)
heavy: EVQLVESGGGLIQPGGSLRLSCAASGFTVSRNYMSWVRQAPGKGLEWVSVIYSGGSTFYADSVKGRFTISRDNSKNTLYLQMNSLRAEDTAVYYCARDGDYYGMDVWGQGTTVTVSSASTKGPSVFPLAPSSKSTSGGTAALGCLVKDYFPEPVTVSWNSGALTSGVHTFPAVLQSSGLYSLSSVVTVPSSSLGTQTYICNVNHKPSNTKVDKKVEPKSCDKTHTCPPCPAPELLGGPSVFLFPPKPKDTLMISRTPEVTCVVVDVSHEDPEVKFNWYVDGVEVHNAKTKPREEQYNSTYRVVSVLTVLHQDWLNGKEYKCKVSNKALPAPIEKTISKAKQPREPQVYTLPPSRDELTKNQVSLTCLVKGFYPSDIAVEWESNGQPENNYKTTPPVLDSDGSFFLYSKLTVDKSRWQQGNVFSCSVMHEALHNHYTQKSLSLSPGK
light: DIQMTQSPSFLSASVGDRVTITCRASQGISSFLAWYQQKPGKAPKLLIYGASTLQSGVTSRFSGSGSGTEFTLTISSLQPEDFATYYCQRLDSYPPITFGQGTRLEIKRTVAAPSVFIFPPSDEQLKSGTASVVCLLNNFYPREAKVQWKVDNALQSGNSQESVTEQDSKDSTYSLSSTLTLSKADYEKHKVYACEVTHQGLSSPVTKSFNRGEC
As for B4, in assay [6], the EC50 (read off the curve) is 0.3 µg/mL. Further, the AUC in [10] and in assay [11] was 1 each time. Moreover, the AUC (RBD bind.) in assay [12] is 6; in assay [13], 13; in assay [14], 12. The results for the AUC (RBD block.) in [16], in assay [17] and in assay [18] were 9, 71 and 111, respectively. For the same molecule, in assay [19], the AUC of blocking amounted to 0.

B5: Cv2.1353 (recombinant human IgG1) (antibody)
heavy: EVQLVESGGGLVQPGGSLRLSCAASGVTVSSNYMNWVRQAPGKGLEWVSVIYSGGSTFYADSVKGRFIISRDNSKNTLYLQMNSLKTEDTAVYYCARDLGPMGFDIWGQGTMVTVSSASTKGPSVFPLAPSSKSTSGGTAALGCLVKDYFPEPVTVSWNSGALTSGVHTFPAVLQSSGLYSLSSVVTVPSSSLGTQTYICNVNHKPSNTKVDKKVEPKSCDKTHTCPPCPAPELLGGPSVFLFPPKPKDTLMISRTPEVTCVVVDVSHEDPEVKFNWYVDGVEVHNAKTKPREEQYNSTYRVVSVLTVLHQDWLNGKEYKCKVSNKALPAPIEKTISKAKQPREPQVYTLPPSRDELTKNQVSLTCLVKGFYPSDIAVEWESNGQPENNYKTTPPVLDSDGSFFLYSKLTVDKSRWQQGNVFSCSVMHEALHNHYTQKSLSLSPGK
light: DIQMTQSPSFLSASVGDRVTITCRASQGISSYLAWYQQKPGKAPKLLIYAASTLQSGVPSRFSGSGSGTEFTLTISSLQPEDFATYYCQQLNSDPPVTFGPGTKVDIKRTVAAPSVFIFPPSDEQLKSGTASVVCLLNNFYPREAKVQWKVDNALQSGNSQESVTEQDSKDSTYSLSSTLTLSKADYEKHKVYACEVTHQGLSSPVTKSFNRGEC
As to B5, the figures for the AUC in [10] and in assay [11] were 3 and 7, respectively. Also, the AUC (RBD bind.) in assay [12], in [13] and in assay [14] was 13 each time. The results for the AUC (RBD block.) in assay [16], in assay [17] and in assay [18] were 142, 97 and 112, respectively. Besides, the AUC of blocking in assay [19] came out at 4.

B6: ADG-2 (antibody, V domains shown)
VH: EVQLVESGGGLVKPGGSLRLSCAASGFTFSSYYMNWVRQAPGKGLEWVSSISEDGYSTYYPDSLKGRFTISRDSAKNSLYLQMNSLRADDTAVYYCARDFSGHTAWAGTGFEYWGQGTLVTVSS
VL: QSVLTQPPSVSGAPGQRITISCTGSSSNIGAGYDVHWYQQLPGTAPKLLIYGSSSRNSGVPDRFSGSKSGTSASLAITGLQAEDEADYYCQSYDSSLSVLYTFGTGTKVTVL
For the molecule B6, the values for the AUC in assay [1], in [2] and in [3] were 3, 3 and 4, respectively. The % binding inhibition in assay [4] was found to be 80%; in assay [5] it was 96%; in assay [15], 95%.
